Tested on: OmpR (phosphorylated with acetyl phosphate) (Yersinia pseudotuberculosis IP31758)
Assay: EMSA

Row | Substance | binding
1 | T6SS-4 promoter | 40 nM
2 | ompF promoter | 20 nM

From publication PMC3686713
